Where a chain is given by its changes, count along the chain named.
B1: antibody 58 (antibody, V domains shown)
VH: QVQLVESGGGLVQPGRSLRLSCAASGFTFDDYAMHWVRQPPGKGLEWVSGVSWNSGTIGYADSVKGRFIISRDNAKNSLYLQMNSLKAEDTALYYCAREVGGTFGVLISREGGLDYWGQGTLVTVSS
VL: SYELTQPPSVSVAPGQTARITCGGNTIGSKSVHWYQQRPGQAPVLVVYDDSDRPSGIPERFSGSNSGNTATLTISRVEAGDEADYYCQVWDSSSDRVVFGGGTKLTVL
notes: also called mAb 58
B2: antibody 40 (antibody, V domains shown)
VH: QVQLVESGGGLVQPGGSLRLSCAVSGFTVSRNYMSWVRQAPGKGLEWVSLIYSGGSTFYADSVKGRFTISRDNSKNTLYLQMNSLRAEDTAVYYCARDLFHRSGYHDYWGQGTLVTVSS
VL: not shown
notes: also called mAb 40
B3: antibody 316 (antibody, V domains shown)
VH: not shown
VL: QAVLTQPPSASGSPGQSVTISCTGTSSDVGGYNYVSWYQQHPGKAPKLMIYEVSKRPSGVPDRFSGSKSGNTASLTVSGLQAEDEADYYCSSYAGSNHWVFGGGTKLTVL
B4: antibody 398 (antibody, V domains shown)
VH: QVQLVESGGGLVQPGGSLRLSCAASGFTVSSNYMTWVRQAPGKGLEWVSVIYSGGSTYYADSVKGRFTISRDNSKNTLYLQMNSLRADDTAVYYCARDSTADYDFWSGYYVGAFHIWGQGTMVTVSS
VL: B3 VL with A2T, P8A, A10V, V18I, S54T, H98N
B5: antibody 175 (antibody, V domains shown)
VH: EVQLVESGGGLIQPGGSLRLSCAASGLTVSRNYMSWVRQAPGKGLEWVSLIYSGGSTYYADSVKGRFTISRDNSKNTLYLQMNSLRAEDTAVYYCARDLRGEVWGQGTMVTVSS
VL: not shown
B6: antibody 58 (antibody, V domains shown)
VH: B1 VH
VL: B1 VL
B7: antibody 88 (antibody, V domains shown)
VH: QLQLQESGPGLVKPSQTLSLTCTVSGGSISSGSYNWTWIRQPAGKGLEWIGRIYNSGSTNYNPSLKSRVTISVDTSKNQLSLKVRSVTAADTAVYYCARHCSGGTCYPKYYYGMDVWGQGTTVTVSS
VL: QSALTQPPSVSEAPRQRVTISCSGSSSNIGNNAVNWYQQFPGKAPKLLIYYDDLLPSGVSDRFSGSKSGTSASLAISGVQSEDEADYYCAAWDDSLNVVVFGGGTKLTVL
B8: antibody 253H165L (antibody, V domains shown)
VH: not shown
VL: DIVMTQSPGTLSLSPGERATLSCRASQSVRSSYLAWYQQKPGQAPRLLIYGASRRGTGIPDRFSGSGSGTDFTLTISRLEPEDFAVYYCQQYGSSPWTFGQGTKVEIK
B9: antibody 40 (antibody, V domains shown)
VH: B2 VH
VL: not shown
B10: antibody 222 (antibody, V domains shown)
VH: EVQLVESGGGLIQPGGSLRLSCAASGLTVSSNYMSWVRQAPGKGLEWVSVIYSGGSTFYADSVKGRFTISRDNSKNTLYLQMNSLGAEDTAVYYCARGEGSPGNWFDPWGQGTLVTVSS
VL: DVVMTQSPGTLSLSPGERATLSCRASQSVPSSYLAWYQQKPGQAPRLLIYGASTRATGIPDRFSGSGSGTDFTLTISRLEPEDFAVYYCQHYDTSPRFGGGTKVDIK
B11: antibody 269 (antibody, V domains shown)
VH: QVQLVESGGGLIQPGGSLRLSCAASGLTVNRNYMSWIRQAPGKGLEWVSVIYSGGSTFYADSVKGRFTISRDNSKNTLSLQMNSLRAEDTAIYYCARDFYEGSFDIWGQGTMVTVSS
VL: AIQLTQSPSFLSASIGDRVTITCRASQGISSYLAWYQQKPGKAPKLLIYAASTLQSGVPSRFSGSGSGTEFTLTISSLQPEDFASYYCQQLNSYPAPVFGPGTKVDIK
B12: antibody 318 (antibody, V domains shown)
VH: QVQLVQSGPEVKKPGTSVKVSCKASGFTLTSSAMQWVRQARGQRLEWIGWIVVGSGNTNYAQKFQERVTITRDMSTSTAYMELSSLRSEDTAVYYCAAGRGYNSDFDYWGQGTLVTVSS
VL: AIRMTQSPGTLSLSPGERATLSCRASQSVSSSYLAWYQQRPGQAPRLLIYGTSSRATGIPDRFSGSGSGTDFTLTISRLEPEDFAVYYCQQYGYSVYTFGQGTKVDIK
B13: antibody 158 (antibody, V domains shown)
VH: EVQLLESGGDLIQPGGSLRLSCAASGVTVSSNYMSWVRQAPGKGLEWVSIIYPGGSTFYADSVKGRFTISRDNSKNTLYLQMHSLRAEDTAVYYCARDLGSGDMDVWGKGTTVTVSS
VL: DIVMTQSPSFLSASVGDRVTITCRASQGISSYLAWYQQKPGKAPKLLIQAASTLQSGVPSRFSGSGSGTEFTLTISSLQPEDFATYYCQQLNSYRYTFGQGTKVEIK
B14: antibody 281 (antibody, V domains shown)
VH: QVQLVESGGGLVQPGGSLRLSCAASGFPFSIYWMSWVRQAPGKGLEWVANIKQDGSEKYYVDSVKGRFTISRDNAKNSLYLHMNSLRGEDTAVYYCASRYYDFRPEAWFDYWGQGTLVTVSS
VL: not shown
B15: Fab 316 (Fab, V domains shown)
VH: not shown
VL: B3 VL
notes: also called 316 Fab (glycosylated)
B16: Fab 278 (Fab, V domains shown)
VH: QVQLVQSGAEVKKPGASVKVSCKASGYIFIRYGISWVRQAPGQGLEWMGWISANNGYTNYAQKLQGRVTMTTDTSTSTAYMELRSLRSDDTAVYYCARDGGILTGYLDYFDHWGQGTLVTVSS
VL: DIQMTQSPSSLSASVGDRLTITCRASQSIASYLNWYQQKPGKAPKLLIYAASSLQSGVPSRFSGSGSGTDFTLTISSLQPEDFATYHCQQSYSTLGITFGPGTKVDIK
B17: Fab 175 (Fab, V domains shown)
VH: B5 VH
VL: not shown
B18: Fab 58 (Fab, V domains shown)
VH: B1 VH
VL: B1 VL
B19: Fab 165 (Fab, V domains shown)
VH: QVQLVQSGPEVKKPGTSVKVSCKASGFTFTSSAVQWVRQARGQRLEWIGWIVVGSGNTNYAQKFQESVTITRDMSTSTAYMELSSLRSEDTAVYYCAAPHCIGGSCHDAFDIWGQGTMVTVSS
VL: B8 VL
B20: Fab 45 (Fab, V domains shown)
VH: QVQLVESGGGVVQPGRSLRLSCAASGFTFSTYAMHWVRQAPGKGLEWVAVLSYDGSNKYYADSVKGRFTISRDNSKNTLYLQMNSLRAEDTAVYYCAKGGSYAYYYYMDVWGKGTTVTVSS
VL: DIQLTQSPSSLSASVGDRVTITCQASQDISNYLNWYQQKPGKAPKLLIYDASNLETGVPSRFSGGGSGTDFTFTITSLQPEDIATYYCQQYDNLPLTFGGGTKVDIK
B21: Fab 222 (Fab, V domains shown)
VH: B10 VH
VL: B10 VL
notes: Fab
B22: Fab 269 (Fab, V domains shown)
VH: B11 VH
VL: B11 VL
notes: also called 269 Fab; COVOX-269 Fab
B23: Fab 318 (Fab, V domains shown)
VH: B12 VH
VL: B12 VL
B24: Fab 158 (Fab, V domains shown)
VH: B13 VH
VL: B13 VL
B25: Fab 281 (Fab, V domains shown)
VH: B14 VH
VL: not shown

Molecular target: T1, SARS-CoV-2 spike receptor binding domain, native (SARS-CoV-2, UniProt P0DTC2 330-532)
T1 construct: range 330-532
Test: BLI, RBD on AR2G biosensor, mAb as analyte

Row | Binder | Kd [nM]
1 | B1 | 1.46
2 | B2 | 1.33

Molecular target: SARS-CoV-2 spike receptor binding domain (native RBD) (SARS-CoV-2, UniProt P0DTC2 330-532)
Test: not given

Row | Binder | Kd [nM]
3 | B3 | 1.5
4 | B4 | 1.02
5 | B5 | 0.97
6 | B6 | 0.3
7 | B7 | 0.64
8 | B8 | 0.73
9 | B9 | 0.55
10 | B10 | 0.29
11 | B11 | 1.59
12 | B12 | 2.23
13 | B13 | 0.53
14 | B14 | 3.2

Molecular target: T2, SARS-CoV-2 receptor binding domain (RBD), native (SARS-CoV-2, UniProt P0DTC2 330-532)
T2 construct: range 330-532
Test: BLI, Fab and RBD

Row | Binder | Kd [nM] | koff [s⁻¹] | kon [M⁻¹ s⁻¹]
15 | B15 | 2 |  | 
16 | B16 | 3 |  | 
17 | B17 | 2.4 |  | 
18 | B18 | 3.4 |  | 
19 | B19 | 4.8 |  | 
20 | B20 | 5.9 | 0.00046 | 78000
21 | B21 | 3 |  | 
22 | B22 | 2.2 |  | 
23 | B23 | 7.6 |  | 
24 | B24 | 0.7 |  | 
25 | B25 | 1 |  | 

Source: US20240043507A1 (RQ BIOTECHNOLOGY, published 2024)
